Experiment [1] has as its target T1, soluble recombinant version of the IGLV3-21^R110-harboring B-cell receptor (monomeric human IgM, 170.5 kDa) (human).
T1 construct: Produced in 293-HEK cells by transient expression as monomeric human IgM; It was the analyte in solution in the BLI assay; also called soluble IGLV3-21^R110 B-cell receptor; soluble BCR-fragment
The experiment in a line: BLI (Octet), antibody captured on anti-human IgG Fc sensor, soluble BCR as analyte, 1:1 model. As to the method:
(§1) Kinetic assays were performed by first immobilizing the anti IGLV3-21^R110 antibodies onto biosensors through an indirect capturing reagent, anti-human IgG Fc antibody. Anti IGLV3-21^R110 antibodies were loaded at a concentration of […] to generate an anti IGLV3-21^R110 antibody capture level of between 0.30 and 0.34 nm. […] The anti IGLV3-21^R110 antibody capture biosensors were then submerged in wells containing the different concentrations of the soluble BCR-fragment for 900 seconds (association stage) followed by a dissociation step of 1200 seconds in running buffer. Steps were performed at a constant shake speed of 1000 rpm. All reagents were used as described by the manufacturer. Sensorgrams were generated after double reference correction (buffer and blank sensors) to compensate for both the natural dissociation of the capture anti IGLV3-21^R110 antibody and also non-specific binding of the soluble BCR-fragment to the sensor surface. […] (KD) were calculated based on the ratio of association (kₐ) and dissociation rate (kd) constants, obtained by fitting sensorgrams with a first order 1:1 binding model using the Fortebio Data Analysis software (Satorius).
(In BLI a coated tip is dipped into the sample, and binding shifts an interference pattern.)

The target of experiment [2] is T1, soluble recombinant version of the …. The experiment can be described thus: BLI (Octet), reference HC0-LC0. As to the method: as §1
For the KD values of all humanized antibodies, see Table 3.

The record followed here is patent US20250145706A1 (SINABIOSOLUTION, published 2025).

Residue numbers refer to the chain shown, from its start. Some results are limits rather than exact numbers.

T1 sequence (heavy, as listed by the source limits assumed, chain 1 of 2): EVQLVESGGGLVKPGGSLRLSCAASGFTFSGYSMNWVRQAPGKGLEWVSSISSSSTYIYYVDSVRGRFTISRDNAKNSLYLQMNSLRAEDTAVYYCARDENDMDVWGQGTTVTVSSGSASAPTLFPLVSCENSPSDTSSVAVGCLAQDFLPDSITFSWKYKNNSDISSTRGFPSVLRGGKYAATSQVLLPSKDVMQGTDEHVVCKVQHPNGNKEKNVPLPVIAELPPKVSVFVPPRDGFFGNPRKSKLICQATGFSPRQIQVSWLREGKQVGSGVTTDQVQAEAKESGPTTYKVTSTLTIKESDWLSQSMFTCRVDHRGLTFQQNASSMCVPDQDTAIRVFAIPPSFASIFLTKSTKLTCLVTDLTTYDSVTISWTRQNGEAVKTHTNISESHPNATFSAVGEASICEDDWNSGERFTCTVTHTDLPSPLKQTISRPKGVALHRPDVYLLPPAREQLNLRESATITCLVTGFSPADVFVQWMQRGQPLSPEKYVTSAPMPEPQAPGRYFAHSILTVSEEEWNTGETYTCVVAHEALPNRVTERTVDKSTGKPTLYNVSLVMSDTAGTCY
T1 sequence (light, as listed by the source limits assumed, chain 2 of 2): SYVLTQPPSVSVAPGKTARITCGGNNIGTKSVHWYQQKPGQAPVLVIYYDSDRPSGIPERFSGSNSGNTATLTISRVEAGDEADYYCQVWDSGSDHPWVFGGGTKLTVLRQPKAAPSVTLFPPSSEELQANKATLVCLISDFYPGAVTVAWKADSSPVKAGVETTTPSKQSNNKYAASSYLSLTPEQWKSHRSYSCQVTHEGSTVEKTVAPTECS

B1: HC0-LC0 (antibody, human IgG1, kappa, V domains shown)
VH: QVQLQQSGPGLVQPSQSLSITCTVSGFSLTSYGIHWVRQSPGKGLEWLGVIWRGGGTDSNAAFMSRLSITKDNSKSQVFFKMNSLQADDTAIYYCARSRYDEEESMNYWGQGTSVTVSS
VL: QIVLTQSPASLSASVGETVTITCRASGNIHSYLAWYQQKQGKSPQLLVYNAKTLADGVPSRFSGSGSGTQYSLKINSLQPEDFGSYYCQHFWNTPPTFGAGTKLELKR
notes: Chimeric: mAb01-01 VH/VL on human IgG1 / human Ig kappa constant domains; also called chimeric antibody HC0-LC0; HC01 LC01
B1: the Kd in experiment [1] worked out at 0.121 nM.

B2: HC7-LC6 (antibody, human IgG1, kappa, V domains shown)
VH: QVQLQESGPGLVKPSETLSLTCTVSGFSLTSYGIHWIRQSPGRGLEWIGVIWRGGGTDSNAAFMSRITISRDTSKTQVSLKLGSVTAADTAIYYCARSRYDEEESMNYWGQGTSVTVSS
VL: EIVLTQSPSSLSASVGDSVTITCRASGNIHSYLAWYQQKPGKAPKLLIYNAKTLADGVPSRFSGSGSGTQYTLTISSLQPEDFATYYCQHFWNTPPTFGAGTKLELKR
notes: Humanized IgG1 / kappa
For the molecule B2, the “fold of the dissociation constant against chimeric antibody HC0-LC0” value in experiment [2] is ≤ 2 fold. Besides, the Kd in experiment [1] stood at 0.175 nM.

B3: HC7-LC8 (antibody, human IgG1, kappa, V domains shown)
VH: B2 VH
VL: EIVLTQSPATLSLSPGERATLSCRASGNIHSYLAWYQQKPGQAPRLLIYNAKTLADGIPARFSGSGSGTDYTLTISSLEPEDFASYYCQHFWNTPPTFGAGTKLELKR
notes: Humanized IgG1 / kappa
As for B3, the Kd in experiment [1] is 0.249 nM.

B4: HC7-LC9 (antibody, human IgG1, kappa, V domains shown)
VH: B2 VH
VL: B3 VL with A9G, A60D, S77R, S85V
notes: Humanized IgG1 / kappa
Take B4: in experiment [1], the Kd was 0.313 nM.

B5: HC7-LC7 (antibody, human IgG1, kappa, V domains shown)
VH: B2 VH
VL: B2 VL with E1Q, V3Q, S10F, K45Q, Q70E
notes: Humanized IgG1 / kappa
Consider B5, for which the Kd in experiment [1] came to 0.269 nM.

As usually defined, the Kd is the equilibrium constant for the complex coming apart.
